For this assay, the target named is IgG (immobilised on resin in a column). Put plainly: IgG-functionalised resin column, about 15 min reaction, buffer wash; effluent monitored for nanoparticle luminescence.

Substance “protein G-zipper fusion protein (IgG binding b2 sub-domain of streptococcal protein G, linker, basic leucine zipper tail, hexahistidine), electrostatically attached to CdSe-ZnS dihydrolipoic acid nanoparticles (from UniProt P19909 373-427)” returned a percent of ionic bioconjugates retained by the column of 95 to 98%.

(Values after patent US6921496.)
